Experiment: yeast display, Sf9 membrane polyspecificity reagent, FACS + sequencing; frameworks hold sequencing errors
Outline: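 A nanobody's polyreactivity label depends on the gate it was sorted from. Yeast display cells were stained with 10% biotinylated, detergent-solubilized Sf9 membrane reagent for 1 hour at 4 °C, enriched on streptavidin microbeads and sorted by FACS. The low and high (top ~1%) gates were set on anti-HA fluorescence for expression and streptavidin fluorescence for reagent binding.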

For “QVQLVESGGGLVQAGGSLRLSCAASGFIFVANAMGWYRQAPGKERELVAAISFSGGRTYYADSVKGRFTISRDNAKNTVYLQMNSLKPEDTAVYYCNTVSEWWAGDHPDAEFDYWGQGTQVTVSS”, the “polyreactivity (PSR sort gate)” value was “low polyreactivity”.
For “QVQLVESGGGLVQAGGSLRLSCAASGFIFVDNAMGWYRQAPGKERELVAAITYRGGSTYYADSVKGRFTISRDNAKNTVYLQMNSLKPEVTAVYYCNADYGDTFEYDYWGQGTQVTVSS”, the “polyreactivity (PSR sort gate)” value was “low polyreactivity”.
For “QVQLVESGGGLVQAGGSLRLSCAASGFIFVDYTMGWYRQAPGKERELVAAITWTGGSTYADSVKGRFTISRDNAKNTVYLQMNSLKPEDTAVYYCAAGQGPDMDYWGQGTQVTVSS”, the “polyreactivity (PSR sort gate)” value was “low polyreactivity”.
For “QVQLVESGGGLVQAGGSLRLSCAASGFIFVENAMGWYIQAPGKERELVASISRRGGSTYYADSVKGRFTISRDNAKNTVYLQMNSLKPEDTAVYYCAATLGRTRYNYWGQGTQVTVSS”, the “polyreactivity (PSR sort gate)” value was “high polyreactivity”.
With “QVQLVESGGGLVQAGGSLRLSCAASGFIFVFYAMGWYIQAPGKERELVAAITWSGGGTYYADSVKGRFTISRDNAKNTVYLQMNSLKPEDTAVYYCNTDASPYLFDYWGQGTQVTVSS” the “polyreactivity (PSR sort gate)” value was “low polyreactivity”.
For “QVQLVESGGGLVQAGGSLRLSCAASGFIFVGYAMGWYRQAPGKERELVAAISYSGGRTYYADSVKGRFTISRDNAKNTVYLQMNSLKPEDTAVYYCAAQSRYGGKFYYWGQGTQVTVSS”, the “polyreactivity (PSR sort gate)” value was “high polyreactivity”.
For “QVQLVESGGGLVQAGGSLRLSCAASGFIFVKNAMGWYRQAPGKERELVAVISTRGGRTYYADSVKGRFTISRDNAKNTVYLQMNSMKPEDTAVYYCAAGDQYKTRRNGYGYWGQGTQVTVSS”, the “polyreactivity (PSR sort gate)” value was “high polyreactivity”.
With “QVQLVESGGGLVQAGGSLRLSCAASGFIFVKYAMGWYIQAPGKERELVAAITTSGTGTFYADSVKGRFTISRDNAKYTVYLQMNRLKPEDTAVYYCNALGHPGDDWGQGTQVTVSS” the “polyreactivity (PSR sort gate)” value was “low polyreactivity”.
For “QVQLVESGGGLVQAGGSLRLSCAASGFIFVPYALGWYRQAPGKERELVAAISSGGSTYYADSVKGRFTISRDNAKNTVYLQMNSLKPEDTAVYYCNTRYYLYQYRYDYWGQGTQVTVSS”, the “polyreactivity (PSR sort gate)” value was “low polyreactivity”.
In the case of “QVQLVESGGGLVQAGGSLRLSCAASGFIFVRNAMGLYRQAPGKEREFVAAITRSGGSTYYADSVKGRFTISRDNAKNTVYLQMNSLKPEDTAVYYCAARIHGSWSFDYWGQGTQVTVSS”, the “polyreactivity (PSR sort gate)” value is reported as “low polyreactivity”.
For “QVQLVESGGGLVQAGGSLRLSCAASGFIFVRNTRGWYRQAPGKERELVAAISSRGGRTYYADSVKGRFTISRDNAKNTVYLQMNSLKPEDTAVYYCAKAHSVNQRYDYWGQGTQVTVSS”, the “polyreactivity (PSR sort gate)” value was “high polyreactivity”.
For “QVQLVESGGGLVQAGGSLRLSCAASGFIFVRYAMGWYRQAPGKEREFVASITRSDGSTYADSVKGRFTISRDNAKNTVYIQMNSLKPEDTAVYYCNKDNHDVELPVEFEYWGQGTQVTVSS”, the “polyreactivity (PSR sort gate)” value was “high polyreactivity”.
For “QVQLVESGGGLVQAGGSLRLSCAASGFIFVRYAMGWYRQAPGKERELVAAISKSGGRTYYADSVKGRFTISRDNAKNTVYLQMNSLKPEDTAVYYCAAYYYVGRVVSFDYWGQGTQVTVSS”, the “polyreactivity (PSR sort gate)” value was “high polyreactivity”.
For “QVQLVESGGGLVQAGGSLRLSCAASGFIFVRYAMGWYRQAPGKERELVAAISSSGGTTNYADSVKGRFTISRDNAKHTVYLQMNSLKPEDTAVYYCNADYYWFFDFFDYDYWGQGTQVTVSS”, the “polyreactivity (PSR sort gate)” value was “low polyreactivity”.
For “QVQLVESGGGLVQAGGSLRLSCAASGFIFVVNAMGWYRQAPGKEREFVAVISSSTGSTYYADSVKGRFTISRDNAKNTVYLQMNSLKPEDTAVYYCAAASRRRRPLNRMDYWGQGTQVTVSS”, the “polyreactivity (PSR sort gate)” value was “low polyreactivity”.
For “QVQLVESGGGLVQAGGSLRLSCAASGFIFVYYAMGWYRQAPGKERELVAAISKRGGNTYYADSVKGRFTISRDNAKNTVYLQMNSLKPEDTAVYYCAAGFTTRRGEYNYWGQGTQVTVSS”, the “polyreactivity (PSR sort gate)” value was “high polyreactivity”.
In the case of “QVQLVESGGGLVQAGGSLRLSCAASGFIFWFNALGWYRQAPGKERELVATISWSDTSTYYADSVKGRFTISRDNAKNTVYLQMNSLKPEDTAVYYCATDGRETWLPEYYWGQGTQVTVSS”, the “polyreactivity (PSR sort gate)” value is reported as “low polyreactivity”.
In the case of “QVQLVESGGGLVQAGGSLRLSCAASGFIFWLYAMGWYRKAPVKESELVAAISWSDGSTYYADSVKGRFTISRDNAKNSVYLQMNCLKREDTAVYYCNTVRVHGFPIDRIYDYWGQGTQVTVSS”, the “polyreactivity (PSR sort gate)” value is reported as “high polyreactivity”.
With “QVQLVESGGGLVQAGGSLRLSCAASGFIFWLYAMGWYRQAPGKERELVAAISRSGGRTYYADSVKGRFTISRDNAKNTVYLQMNSLKPEDTAVYYCAKDDNYKSYPYDYWGQGTQVTVSS” the “polyreactivity (PSR sort gate)” value was “high polyreactivity”.
For “QVQLVESGGGLVQAGGSLRLSCAASGFIFWRNAMGWYRQAPGKERELVAAITSGDRTNYADSVKGRFTISRDNAKNTVYLQMNSLKPEDTAVYYCNARRLRLVSYDYCGQGTQVTVSS”, the “polyreactivity (PSR sort gate)” value was “low polyreactivity”.
In the case of “QVQLVESGGGLVQAGGSLRLSCAASGFIFWSYAMGWYIQAPGKERELVAAINTSGDSTYYADSVKGRFTISRDNAKNTVYLQMNSLKPEDTAVYYCAAKSSTRGDYWGQGTQVTVSS”, the “polyreactivity (PSR sort gate)” value is reported as “low polyreactivity”.
For “QVQLVESGGGLVQAGGSLRLSCAASGFIFWWYAMGWYRQAPGKERELVATITASVGSTNYADSVKGRFTISRDNAKNTVYLQMNSLKPEDTAVYYCASDIIGAIRDWDHTRMDYWGQGTQVNVSS”, the “polyreactivity (PSR sort gate)” value was “low polyreactivity”.
For “QVQLVESGGGLVQAGGSLRLSCAASGFIFWYNAMGWYRQAPGKERELVADNTSGGSTTYADSVKGRFTISRDNAKNTVYLQMNSLKPEDTAVYYCAASIRRYWLHPGDYWGQGTQVTVSS”, the “polyreactivity (PSR sort gate)” value was “low polyreactivity”.
For “QVQLVESGGGLVQAGGSLRLSCAASGFIFWYYAIGWYRQAPGKERELVADISSGGSTNYADSVKGRFTISRDNAKNTVYLQMNSLKPEDTAVYYCADDTFRRDDYWGQGTQVTVSS”, the “polyreactivity (PSR sort gate)” value was “low polyreactivity”.
With “QVQLVESGGGLVQAGGSLRLSCAASGFIFWYYAMGWYRQAPGKERELVAAISSRGGSTYYADSVKGRFTISRDNAKNTVYLQMNSLKPEDTAVYYCAATGYTGYSRYYYWGQGTQVTVSS” the “polyreactivity (PSR sort gate)” value was “high polyreactivity”.
With “QVQLVESGGGLVQAGGSLRLSCAASGFIFWYYDMGWYRQAPGKERELVAAISDRGGSTSYADSVKGRFTISRDNAKNTVYLQMNSLKPEDTAVYSCAVDRSLSPFAYDYWGQGTQVTVSS” the “polyreactivity (PSR sort gate)” value was “low polyreactivity”.
With “QVQLVESGGGLVQAGGSLRLSCAASGFIFYDYALGWYRQAPGKERELVAAITQRGGSTYYADSVKGRFPISRDNAKKTVYLQMTSLKPVDTAVYSCAAKDAPYWFPITHVQPVDMDYWGQGTQVTVSS” the “polyreactivity (PSR sort gate)” value was “high polyreactivity”.
With “QVQLVESGGGLVQAGGSLRLSCAASGFIFYDYAMGWYRQAPGKERELVAVITRGGSTYYADSVKGRFTISRDNAKNTVYLQMNSLKPEDTAVYYCAAYWFTPGFTFDYWGQGTQVTVSS” the “polyreactivity (PSR sort gate)” value was “low polyreactivity”.
For “QVQLVESGGGLVQAGGSLRLSCAASGFIFYEYAMGWYRQSPGKERELVAGISWSGDSTYYADSVKGRFTISRDNAKNTVYLQMNRLKPEDTAVYYCAADPYYQGYDYWGQGTQVTVSS”, the “polyreactivity (PSR sort gate)” value was “low polyreactivity”.
With “QVQLVESGGGLVQAGGSLRLSCAASGFIFYGYAKGWYRQAPGKERELVAGISTGGSKNYADSVKGRFTISRDNAKNTVYVQMNSLKPEDTAVDYCAVVDVEEHVGHWGQGTQVTVSS” the “polyreactivity (PSR sort gate)” value was “low polyreactivity”.
For “QVQLVESGGGLVQAGGSLRLSCAASGFIFYGYAMGWYRQAPGKERELVAGISTVGSTNYADSVKGRFTISRDNAKNTVYLQMNSLKPEDSAVYYCAVVDVEDHVGHWGQGTQVTVSS”, the “polyreactivity (PSR sort gate)” value was “low polyreactivity”.
In the case of “QVQLVESGGGLVQAGGSLRLSCAASGFIFYHNAMGWYRQAPGKERELVAVISSGGSTYYADSVKGRFTISRDNAKNTVYLQMNSLKPEDTAVYYCAALYYGWSGSYAMDYWGQGTQVTVSS”, the “polyreactivity (PSR sort gate)” value is reported as “high polyreactivity”.

From the nanobody polyreactivity screen of Harvey et al. (2022)
